In US20260242735A1 (UNIVERSIT T BASEL, published 2026):

Key:
Test in all cases: flow cytometry, alanine scan
human CD33 A328S = human CD33 A328S (human, UniProt P20138 18-364)
Method: (§1) An alanine scan on human CD33 was performed to the determine the residues on CD33 that are involved in binding to the antibodies investigated. […] Briefly, a mutation library of CD33 was created by high-throughput, site-directed mutagenesis. Each residue was individually mutated to alanine, with alanine codons mutated to serine. The mutant library was arrayed in 384-well microplates and transiently transfected into HEK293-T. Following transfection, cells were incubated with the indicated antibodies (IgG or Fab) at concentrations pre-determined using an independent immunofluorescence titration curve on wild type CD33. […] Binding of each antibody to each mutant clone was determined in duplicates. For each point, background fluorescence was subtracted from the raw data, which were then normalized to antibody reactivity with wild type CD33.
(§2) Critical residues for antibody binding (outlined in dark grey) were residues whose mutations led to a binding of the test Abs of less than 20%. Additional secondary residues (outlined in light grey) were identified that led to a binding of the test Abs of between 20 and 40% as compared to the wild type CD33.

human CD33 K352A = human CD33 K352A (human, UniProt P20138 18-364)
Method: as §1, §2

human CD33 C325A = human CD33 C325A (human, UniProt P20138 18-364)
Method: as §1, §2

human CD33 T356A = human CD33 T356A (human, UniProt P20138 18-364)
Method: as §1, §2

human CD33 E333A = human CD33 E333A (human, UniProt P20138 18-364)
Method: as §1, §2

human CD33 T322A = human CD33 T322A (human, UniProt P20138 18-364)
Method: as §1, §2

human CD33 S355A = human CD33 S355A (human, UniProt P20138 18-364)
Method: as §1, §2

human CD33 Q364A = human CD33 Q364A (human, UniProt P20138 18-363)
Method: as §1, §2

human CD33 G318A = human CD33 G318A (human, UniProt P20138 18-364)
Method: as §1, §2

human CD33 M334A = human CD33 M334A (human, UniProt P20138 18-364)
Method: as §1, §2

human CD33 Y340A = human CD33 Y340A (human, UniProt P20138 18-364)
Method: as §1, §2

human CD33 R362A = human CD33 R362A (human, UniProt P20138 18-364)
Method: as §1, §2

human CD33 S326A = human CD33 S326A (human, UniProt P20138 18-364)
Method: as §1, §2

human CD33 A341S = human CD33 A341S (human, UniProt P20138 18-364)
Method: as §1, §2

human CD33 A329S = human CD33 A329S (human, UniProt P20138 18-364)
Method: as §1, §2

human CD33 T354A = human CD33 T354A (human, UniProt P20138 18-364)
Method: as §1, §2

human CD33 P319A = human CD33 P319A (human, UniProt P20138 18-364)
Method: as §1, §2

human CD33 L343A = human CD33 L343A (human, UniProt P20138 18-364)
Method: as §1, §2

human CD33 D353A = human CD33 D353A (human, UniProt P20138 18-364)
Method: as §1, §2

human CD33 E321A = human CD33 E321A (human, UniProt P20138 18-364)
Method: as §1, §2

human CD33 T320A = human CD33 T320A (human, UniProt P20138 18-364)
Method: as §1, §2

human CD33 E336A = human CD33 E336A (human, UniProt P20138 18-364)
Method: as §1, §2

human CD33 N344A = human CD33 N344A (human, UniProt P20138 18-364)
Method: as §1, §2

human CD33 S342A = human CD33 S342A (human, UniProt P20138 18-364)
Method: as §1, §2

human CD33 S359A = human CD33 S359A (human, UniProt P20138 18-364)
Method: as §1, §2

human CD33 E360A = human CD33 E360A (human, UniProt P20138 18-364)
Method: as §1, §2

human CD33 M348A = human CD33 M348A (human, UniProt P20138 18-364)
Method: as §1, §2

human CD33 T363A = human CD33 T363A (human, UniProt P20138 18-364)
Method: as §1, §2

human CD33 H346A = human CD33 H346A (human, UniProt P20138 18-364)
Method: as §1, §2

human CD33 S323A = human CD33 S323A (human, UniProt P20138 18-364)
Method: as §1, §2

human CD33 T331A = human CD33 T331A (human, UniProt P20138 18-364)
Method: as §1, §2

human CD33 V361A = human CD33 V361A (human, UniProt P20138 18-364)
Method: as §1, §2

human CD33 P350A = human CD33 P350A (human, UniProt P20138 18-364)
Method: as §1, §2

human CD33 H339A = human CD33 H339A (human, UniProt P20138 18-364)
Method: as §1, §2

human CD33 E337A = human CD33 E337A (human, UniProt P20138 18-364)
Method: as §1, §2

human CD33 S324A = human CD33 S324A (human, UniProt P20138 18-364)
Method: as §1, §2

human CD33 G327A = human CD33 G327A (human, UniProt P20138 18-364)
Method: as §1, §2

human CD33 S351A = human CD33 S351A (human, UniProt P20138 18-364)
Method: as §1, §2

human CD33 E357A = human CD33 E357A (human, UniProt P20138 18-364)
Method: as §1, §2

human CD33 Y358A = human CD33 Y358A (human, UniProt P20138 18-364)
Method: as §1, §2

human CD33 N349A = human CD33 N349A (human, UniProt P20138 18-364)
Method: as §1, §2

human CD33 V332A = human CD33 V332A (human, UniProt P20138 18-364)
Method: as §1, §2

human CD33 L338A = human CD33 L338A (human, UniProt P20138 18-364)
Method: as §1, §2

human CD33 P330A = human CD33 P330A (human, UniProt P20138 18-364)
Method: as §1, §2

human CD33 F345A = human CD33 F345A (human, UniProt P20138 18-364)
Method: as §1, §2

human CD33 D335A = human CD33 D335A (human, UniProt P20138 18-364)
Method: as §1, §2

human CD33 G347A = human CD33 G347A (human, UniProt P20138 18-364)
Chain of human CD33 G347A (P20138 18-364 G347A limits assumed): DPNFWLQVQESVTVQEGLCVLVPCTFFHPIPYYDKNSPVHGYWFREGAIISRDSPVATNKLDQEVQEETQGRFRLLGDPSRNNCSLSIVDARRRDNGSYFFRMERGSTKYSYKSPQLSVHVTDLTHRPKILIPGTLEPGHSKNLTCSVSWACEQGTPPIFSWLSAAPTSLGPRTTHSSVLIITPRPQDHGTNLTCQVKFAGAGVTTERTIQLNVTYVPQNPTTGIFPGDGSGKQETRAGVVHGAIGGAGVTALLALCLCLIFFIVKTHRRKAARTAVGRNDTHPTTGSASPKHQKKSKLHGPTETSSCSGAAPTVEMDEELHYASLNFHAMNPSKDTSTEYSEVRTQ
Method: as §1, §2

Chain of human CD33 F345A (P20138 18-364 F345A limits assumed): as the sequence (P20138 18-364 G347A limits assumed) above, with F328A, A330G counted along it
Chain of human CD33 G318A (P20138 18-364 G318A limits assumed): as the sequence (P20138 18-364 G347A limits assumed) above, with G301A, A330G counted along it
Chain of human CD33 P319A (P20138 18-364 P319A limits assumed): as the sequence (P20138 18-364 G347A limits assumed) above, with P302A, A330G counted along it
Chain of human CD33 L338A (P20138 18-364 L338A limits assumed): as the sequence (P20138 18-364 G347A limits assumed) above, with L321A, A330G counted along it
Chain of human CD33 R362A (P20138 18-364 R362A limits assumed): as the sequence (P20138 18-364 G347A limits assumed) above, with A330G, R345A counted along it
Chain of human CD33 S351A (P20138 18-364 S351A limits assumed): as the sequence (P20138 18-364 G347A limits assumed) above, with A330G, S334A counted along it
Chain of human CD33 P350A (P20138 18-364 P350A limits assumed): as the sequence (P20138 18-364 G347A limits assumed) above, with A330G, P333A counted along it
Chain of human CD33 D335A (P20138 18-364 D335A limits assumed): as the sequence (P20138 18-364 G347A limits assumed) above, with D318A, A330G counted along it
Chain of human CD33 H346A (P20138 18-364 H346A limits assumed): as the sequence (P20138 18-364 G347A limits assumed) above, with H329A, A330G counted along it
Chain of human CD33 N344A (P20138 18-364 N344A limits assumed): as the sequence (P20138 18-364 G347A limits assumed) above, with N327A, A330G counted along it
Chain of human CD33 T331A (P20138 18-364 T331A limits assumed): as the sequence (P20138 18-364 G347A limits assumed) above, with T314A, A330G counted along it
Chain of human CD33 E360A (P20138 18-364 E360A limits assumed): as the sequence (P20138 18-364 G347A limits assumed) above, with A330G, E343A counted along it
Chain of human CD33 C325A (P20138 18-364 C325A limits assumed): as the sequence (P20138 18-364 G347A limits assumed) above, with C308A, A330G counted along it

B1: Refmab #4 (antibody, V domains shown)
VH: QVQLVQSGAEVKKPGESVKVSCKASGYTFTNYGMNWVKQAPGQGLEWMGWINTYTGEPTYADKFQGRVTMTTDTSTSTAYMEIRNLGGDDTAVYYCARWSWSDGYYVYFDYWGQGTSVTVSS
VL: DIVMTQSPDSLTVSLGERTTINCKSSQSVLDSSTNKNSLAWYQQKPGQPPKLLLSWASTRESGIPDRFSGSGSGTDFTLTIDSPQPEDSATYYCQQSAHFPITFGQGTRLEIK
notes: The alanine scan used IgG or Fab
Mean % WT Binding (human CD33 A328S): 75.6 % of WT
Mean % WT Binding (human CD33 K352A): 103 % of WT
Mean % WT Binding (human CD33 C325A): 88.6 % of WT
Mean % WT Binding (human CD33 T356A): 107 % of WT
Mean % WT Binding (human CD33 E333A): 104 % of WT
Mean % WT Binding (human CD33 T322A): 98.2 % of WT
Mean % WT Binding (human CD33 S355A): 91.5 % of WT
Mean % WT Binding (human CD33 Q364A): 81.5 % of WT
Mean % WT Binding (human CD33 G318A): 92.2 % of WT
Mean % WT Binding (human CD33 M334A): 111 % of WT
Mean % WT Binding (human CD33 Y340A): 112 % of WT
Mean % WT Binding (human CD33 R362A): 104 % of WT
Mean % WT Binding (human CD33 S326A): 65.8 % of WT
Mean % WT Binding (human CD33 A341S): 104 % of WT
Mean % WT Binding (human CD33 A329S): 87.3 % of WT
Mean % WT Binding (human CD33 T354A): 106 % of WT
Mean % WT Binding (human CD33 P319A): 97 % of WT
Mean % WT Binding (human CD33 L343A): 116 % of WT
Mean % WT Binding (human CD33 D353A): 74.9 % of WT
Mean % WT Binding (human CD33 E321A): 120 % of WT
Mean % WT Binding (human CD33 T320A): 109 % of WT
Mean % WT Binding (human CD33 E336A): 109 % of WT
Mean % WT Binding (human CD33 N344A): 71.2 % of WT
Mean % WT Binding (human CD33 S342A): 105 % of WT
Mean % WT Binding (human CD33 S359A): 82.7 % of WT
Mean % WT Binding (human CD33 E360A): 104 % of WT
Mean % WT Binding (human CD33 M348A): 85 % of WT
Mean % WT Binding (human CD33 T363A): 124 % of WT
Mean % WT Binding (human CD33 H346A): 111 % of WT
Mean % WT Binding (human CD33 S323A): 103 % of WT
Mean % WT Binding (human CD33 T331A): 97.9 % of WT
Mean % WT Binding (human CD33 V361A): 92.4 % of WT
Mean % WT Binding (human CD33 P350A): 93.1 % of WT
Mean % WT Binding (human CD33 H339A): 82 % of WT
Mean % WT Binding (human CD33 E337A): 106 % of WT
Mean % WT Binding (human CD33 S324A): 96.4 % of WT
Mean % WT Binding (human CD33 G327A): 99.1 % of WT
Mean % WT Binding (human CD33 S351A): 114 % of WT
Mean % WT Binding (human CD33 E357A): 110 % of WT
Mean % WT Binding (human CD33 Y358A): 109 % of WT
Mean % WT Binding (human CD33 N349A): 95.5 % of WT
Mean % WT Binding (human CD33 V332A): 93.4 % of WT
Mean % WT Binding (human CD33 L338A): 109 % of WT
Mean % WT Binding (human CD33 P330A): 97.8 % of WT
Mean % WT Binding (human CD33 F345A): 109 % of WT
Mean % WT Binding (human CD33 D335A): 105 % of WT
Mean % WT Binding (human CD33 G347A): 72.1 % of WT
